Results reported in patent US20240018255A1.

Tests used:
[1] = molecular target: SIRPα V5 fusion Fc (mouse IgG2a) (human; mouse); experiment: ELISA, plate coated with SIRPα V5-Fc (mouse IgG2a), anti-hFab secondary, OD450; unit from the axis Log(Conc.(nM))
[2] = molecular target: SIRPα V10 fusion Fc (mouse IgG2a) (human; mouse); experiment: ELISA, plate coated with SIRPα V10-Fc (mouse IgG2a), anti-hFab secondary, OD450; fit value of a flat curve, see non_binding
[3] = molecular target: SIRPα V4 fusion Fc (mouse IgG2a) (human; mouse); experiment: ELISA, plate coated with SIRPα V4-Fc (mouse IgG2a), anti-hFab secondary, OD450
[4] = molecular target: SIRPα V2 fusion Fc (mouse IgG2a) (human; mouse); experiment: ELISA, plate coated with SIRPα V2-Fc (mouse IgG2a), anti-hFab secondary, OD450; fit value of a flat curve, see non_binding
[5] = molecular target: SIRPα V1 fusion Fc (mouse IgG2a) (human; mouse); experiment: ELISA, plate coated with SIRPα V1-Fc (mouse IgG2a), anti-hFab secondary, OD450; unit from the axis Log(Conc.(nM))
[6] = molecular target: SIRPα V9 fusion Fc (mouse IgG2a) (human; mouse); experiment: ELISA, plate coated with SIRPα V9-Fc (mouse IgG2a), anti-hFab secondary, OD450
[7] = molecular target: SIRPα V6 fusion Fc (mouse IgG2a) (human; mouse); experiment: ELISA, plate coated with SIRPα V6-Fc (mouse IgG2a), anti-hFab secondary, OD450
SIRPα V6 fusion Fc (mouse IgG2a) (human; mouse), sequence (chain, as listed by the source limits assumed): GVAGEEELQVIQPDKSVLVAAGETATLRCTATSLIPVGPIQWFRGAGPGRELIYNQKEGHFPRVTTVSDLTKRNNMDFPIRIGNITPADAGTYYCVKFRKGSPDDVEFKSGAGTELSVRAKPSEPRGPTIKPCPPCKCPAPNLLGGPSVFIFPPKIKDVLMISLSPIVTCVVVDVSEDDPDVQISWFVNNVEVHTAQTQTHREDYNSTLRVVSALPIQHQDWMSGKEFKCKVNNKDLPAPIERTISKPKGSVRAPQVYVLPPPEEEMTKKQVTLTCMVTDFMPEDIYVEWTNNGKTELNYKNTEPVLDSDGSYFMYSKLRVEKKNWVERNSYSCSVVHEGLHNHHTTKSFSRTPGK

SIRPα V9 fusion Fc (mouse IgG2a) (human; mouse), sequence (chain, as listed by the source limits assumed): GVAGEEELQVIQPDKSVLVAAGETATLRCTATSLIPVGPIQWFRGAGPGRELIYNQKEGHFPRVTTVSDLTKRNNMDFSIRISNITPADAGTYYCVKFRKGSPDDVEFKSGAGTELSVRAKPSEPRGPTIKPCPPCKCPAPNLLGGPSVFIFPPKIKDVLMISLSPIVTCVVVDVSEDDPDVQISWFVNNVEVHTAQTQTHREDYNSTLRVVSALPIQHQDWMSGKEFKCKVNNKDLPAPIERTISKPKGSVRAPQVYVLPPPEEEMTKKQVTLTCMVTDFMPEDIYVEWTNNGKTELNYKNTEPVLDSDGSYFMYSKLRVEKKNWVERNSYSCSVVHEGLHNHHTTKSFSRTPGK
SIRPα V1 fusion Fc (mouse IgG2a) (human; mouse), sequence (chain, as listed by the source limits assumed): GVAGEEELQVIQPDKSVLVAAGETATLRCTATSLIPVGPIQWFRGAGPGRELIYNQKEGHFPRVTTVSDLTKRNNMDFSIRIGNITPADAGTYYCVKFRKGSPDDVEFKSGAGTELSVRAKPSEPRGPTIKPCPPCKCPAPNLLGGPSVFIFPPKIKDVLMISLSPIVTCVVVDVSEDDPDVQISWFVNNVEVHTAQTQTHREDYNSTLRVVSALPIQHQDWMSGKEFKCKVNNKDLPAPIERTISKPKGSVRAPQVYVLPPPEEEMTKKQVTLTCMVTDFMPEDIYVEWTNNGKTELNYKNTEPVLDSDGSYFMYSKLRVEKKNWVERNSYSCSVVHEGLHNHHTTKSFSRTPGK
SIRPα V5 fusion Fc (mouse IgG2a) (human; mouse), sequence (chain, as listed by the source limits assumed): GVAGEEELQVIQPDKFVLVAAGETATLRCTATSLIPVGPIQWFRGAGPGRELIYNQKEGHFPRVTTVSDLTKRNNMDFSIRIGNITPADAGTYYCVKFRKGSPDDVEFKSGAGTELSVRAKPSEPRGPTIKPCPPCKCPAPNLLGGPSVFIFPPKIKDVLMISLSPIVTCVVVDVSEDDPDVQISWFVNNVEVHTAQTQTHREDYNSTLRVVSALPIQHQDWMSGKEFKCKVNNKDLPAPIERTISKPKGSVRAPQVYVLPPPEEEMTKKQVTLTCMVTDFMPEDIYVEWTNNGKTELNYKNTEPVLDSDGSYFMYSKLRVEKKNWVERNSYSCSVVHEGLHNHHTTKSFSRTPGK
SIRPα V4 fusion Fc (mouse IgG2a) (human; mouse), sequence (chain, as listed by the source limits assumed): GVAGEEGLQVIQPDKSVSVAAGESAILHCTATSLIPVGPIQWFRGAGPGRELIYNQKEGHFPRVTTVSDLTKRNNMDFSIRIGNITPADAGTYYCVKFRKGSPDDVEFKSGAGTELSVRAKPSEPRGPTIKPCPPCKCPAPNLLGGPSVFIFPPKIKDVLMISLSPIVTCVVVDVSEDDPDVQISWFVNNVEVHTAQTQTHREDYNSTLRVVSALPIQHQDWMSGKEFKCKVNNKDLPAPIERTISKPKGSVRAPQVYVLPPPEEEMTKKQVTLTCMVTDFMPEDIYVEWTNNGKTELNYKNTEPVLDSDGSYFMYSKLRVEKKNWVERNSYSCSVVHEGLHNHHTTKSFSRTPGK
SIRPα V10 fusion Fc (mouse IgG2a) (human; mouse), sequence (chain, as listed by the source limits assumed): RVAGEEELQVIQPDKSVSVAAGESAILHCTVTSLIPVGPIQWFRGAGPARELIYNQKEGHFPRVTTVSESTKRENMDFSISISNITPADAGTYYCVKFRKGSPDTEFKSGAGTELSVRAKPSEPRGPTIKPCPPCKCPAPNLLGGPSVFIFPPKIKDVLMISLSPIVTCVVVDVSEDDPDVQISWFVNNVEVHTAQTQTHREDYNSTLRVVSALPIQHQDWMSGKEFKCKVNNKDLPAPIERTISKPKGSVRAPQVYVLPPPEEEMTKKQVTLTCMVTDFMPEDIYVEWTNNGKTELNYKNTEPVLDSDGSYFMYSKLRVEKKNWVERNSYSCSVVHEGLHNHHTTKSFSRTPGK
SIRPα V2 fusion Fc (mouse IgG2a) (human; mouse), sequence (chain, as listed by the source limits assumed): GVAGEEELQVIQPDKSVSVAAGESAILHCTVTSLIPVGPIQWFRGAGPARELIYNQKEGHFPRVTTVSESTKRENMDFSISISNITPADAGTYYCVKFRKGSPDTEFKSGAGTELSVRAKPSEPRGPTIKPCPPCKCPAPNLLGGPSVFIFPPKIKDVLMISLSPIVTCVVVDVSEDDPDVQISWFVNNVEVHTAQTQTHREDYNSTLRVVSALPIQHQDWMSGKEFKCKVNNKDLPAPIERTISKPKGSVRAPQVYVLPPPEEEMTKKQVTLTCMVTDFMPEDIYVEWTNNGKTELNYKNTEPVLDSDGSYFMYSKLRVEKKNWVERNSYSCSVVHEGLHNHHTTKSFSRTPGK

B1: anti-SIRPα antibody 18D5 of OSE Company (antibody, from a related filing, V domains shown)
VH: QVQLQQPGAELVRPGSSVKLSCKASGYTFTSYWVHWVKQRPIQGLEWIGNIDPSDSDTHYNQKFKDKASLTVDKSSSTAYMQLSSLTFEDSAVYYCVRGGTGTMAWFAYWGQGTLVTVSA
VL: DVVMTQTPLSLPVSLGDQASISCRSSQSLVHSYGNTYLYWYLQKPGQSPKLLIYRVSNRFSGVPDRFSGSGSGTDFTLKISRVEAEDLGVYFCFQGTHVPYTFGSGTKLEIKR
- EC50 [1]: 0.13 nM
- EC50 [2]: 0.0554 nM
- EC50 (read off the curve) [3]: 0.1 nM
- EC50 [4]: 0.0554 nM
- EC50 [5]: 0.154 nM
- EC50 (read off the curve) [6]: 0.2 nM
- EC50 (read off the curve) [7]: 0.1 nM
